Biological target: Epidermal growth factor receptor of HCT-116 cells (human (HCT-116, a human colon cancer cell line)) (UniProt P00533)
Experiment: cell-based or functional assay

With “ERRP fusion protein bound to MBP (from UniProt Q01279 25-448)” the EGF-R Tyr-K activity in HCT-116 cells (reduction against cells exposed to MBP alone or control cells) was 80 to 90%.

Reference: patent US20020045215A1
